Results published in publication PMC12051234, “NrdR in Streptococcus and Listeria spp.: DNA Helix Phase Dependence of the Bacterial Ribonucleotide Reductase Repressor” (Molecular Microbiology, 2024).
“And” between values parts separate entries of the source, which are not always exact repeats. Equal values may be shown once.

How the values were obtained:
[1] = molecular target: the molecule itself; experiment: SEC; SpnNrdR 50 uM incubated with 0.5 mM ATP, 0.5 mM dATP and 2.5 mM MgCl; ATP and dATP 0.1 mM each in the buffer; Superdex S200 Increase, 4 C; 25 mM HEPES pH 7.2, 2.5 mM MgCl2, 15% glycerol, 250 mM NaCl, 0.1 mM TCEP
[2] = molecular target: the molecule itself; experiment: SEC; LmoNrdR 50 uM, no nucleotides in protein or buffer (apo); Superdex S200 Increase, 4 C; 25 mM Bis-Tris Propane pH 6.5, 5% glycerol, 5 mM MgCl2, 100 mM KCl, 1 mM DTT; size from a calibration curve of globular standards
[3] = molecular target: the molecule itself; experiment: SEC; LmoNrdR 50 uM incubated with 1 mM ATP and 5 mM MgCl; 0.2 mM ATP in the buffer; Superdex S200 Increase, 4 C; 25 mM Bis-Tris Propane pH 6.5, 5% glycerol, 5 mM MgCl2, 100 mM KCl, 1 mM DTT
[4] = molecular target: the molecule itself; experiment: SEC; LmoNrdR 50 uM incubated with dATP + ATP and 5 mM MgCl; 0.1 mM of each nucleotide in the buffer; Superdex S200 Increase, 4 C; 25 mM Bis-Tris Propane pH 6.5, 5% glycerol, 5 mM MgCl2, 100 mM KCl, 1 mM DTT

B1: Streptococcus pneumoniae NrdR (natural protein, Streptococcus pneumoniae TIGR4, UniProt P67318 1-157, looked up)
chain: MRCPKCGATKSSVIDSRQAEEGNTIRRRRECDECQHRFTTYERVEERTLVVVKKDGTREQFSRDKIFNGIIRSAQKRPVSSDEINMVVNRIEQKLRGRNENEIQSEDIGSLVMEELAELDEITYVRFASVYRSFKDVSELESLLQQITQSSKKKKER
notes: NrdR, transcriptional repressor of ribonucleotide reductase genes, S. pneumoniae TIGR4; the nrdR gene (SP_1713, AAK75791) cloned in pET30a(+) between NdeI and XhoI; molecular mass including the hexa-histidine tag 19.4 kDa; Oligomeric state depends on the nucleotides added (none, ATP, dATP + ATP); also called SpnNrdR; source: E. coli BL21(DE3), purified (HisTrap FF Ni-Sepharose, desalting); not …
stoichiometry N [1]: 4

B2: Listeria monocytogenes NrdR (natural protein, UniProt B8DHI6 1-154, looked up)
chain: MRCPTCQYNGTRVVDSRPADDGNSIRRRRECEKCGFRFTTFEKVEESPLIVVKKDGAREEFAREKVRRGLIRACEKRPVSAEQIEEIVNEVERELRNIGDSEIASDLIGEKVMNKLANLDEVAYVRFASVYRQFKDISVFVEELKDLMEKNKDR
notes: NrdR, transcriptional repressor of ribonucleotide reductase genes, L. monocytogenes serotype 1/2a str; S10403S; molecular mass including the hexa-histidine tag 19 kDa; Oligomeric state depends on the nucleotides added; also called LmoNrdR; L. monocytogenes NrdR; source: E. coli BL21(DE3), purified (HisTrap FF Ni-Sepharose, desalting); not shown: His6, C-terminal, kept
stoichiometry N [2]: 2 and 4
stoichiometry N [3]: 8
stoichiometry N [4]: 4
